According to PMC4335062, “Data-Driven Prediction and Design of bZIP Coiled-Coil Interactions” (PLoS Computational Biology, 2015):
Where no end group is shown, it is not given here.

What was measured:
[1] = target: T1, XBP1 (Homo sapiens, UniProt P17861); settings: native human bZIP binding XBP1; cited from earlier work
T1 construct: made in house
T1 sequence (P17861 70-133 limits assumed): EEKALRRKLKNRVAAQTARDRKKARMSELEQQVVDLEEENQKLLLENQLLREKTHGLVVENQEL
Source text: We chose five human bZIP proteins as targets: X-box binding protein 1 (XBP1), JUN, Activating Transcription Factor (ATF) 3, ATF4 and ATF5. These are proteins for which an interaction partner was designed in prior work, but either the affinity or the specificity of the design left room for improvement. […] For example, XBP1-d1 was composed of heptads from N. vectensis, C. elegans and C. intestinalis proteins, and from previously designed bZIP binders. We also note that our four designs were composed of 24 distinct, non-recurring heptads. Thus, our design al ... || We compared the new designs to designed peptides targeting XBP1 and JUN reported by Grigoryan et al. for which FRET measurements were available. […] It should be noted that XBP1 presents a challenging target because three of its core a positions are occupied by asparagines. A matching asparagi ...

[2] = target: partner bZIP coiled coil (Protein2); settings: Protein2 = CI12 (CI), inter; 5000 assigned if Kd >5,000 nM or no binding; cited from earlier work
Procedure: Supplement pcbi.1004046.s020.csv, table | column: Kd || Fig 4 Designed bZIP-binding peptides inhibit interactions of native bZIP dimers. […] The dissociation constants at the indicated temperatures are Kd ≤ 1 nM for FOS-JUN, Kd ≤1 nM for XBP1-CREBZF, and Kd = 60 nM for ATF4-FOS, according to [18]. Fluorescence intensities were measured at both 37°C and 23°C, a ...

[3] = target: the molecule itself; assay: FRET or BRET; homodimer Kd of the designed peptide determined by FRET, 23°C; dimer to monomers
[4] = target: T2, Activating Transcription Factor 4 (ATF4) bZIP construct, C-terminally fluoresceinated (human, UniProt P18848 278-351, fluorescein at the C-terminus); assay: FRET or BRET; direct-binding FRET at 37°C; 10 nM fluorescein-labelled bZIP (donor), rhodamine-labelled design (acceptor) titrated 0 to 1 μM; 150 mM KCl, 50 mM potassium phosphate pH 7.4, 0.1% Tween-20, 0.1% BSA; settings: both partners purified
T2 construct: source: previously described, donated by A.W. Reinke [18]
T2 sequence (looked up): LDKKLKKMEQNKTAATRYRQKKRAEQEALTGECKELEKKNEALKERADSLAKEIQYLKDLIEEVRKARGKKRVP

[5] = target: JUN (Homo sapiens, UniProt P05412); set-up: made in house; settings: native human bZIP binding JUN; cited from earlier work
JUN, sequence (P05412 252-315 limits assumed): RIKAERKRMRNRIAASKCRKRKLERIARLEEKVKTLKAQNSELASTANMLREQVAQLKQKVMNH
Source text: For most bZIP pairs, binding of the N-terminally labeled designed peptide to a C-terminally labeled target gave very little signal, and such curves could rarely be fit to provide Kd values (S9–S12 Tables). In a few cases where interactions could be quantified with both N- and C-terminal dye labeling, we observed that the affinity of N-terminally labeled designs for C-terminally labeled targets was somewhat weaker than the affinity of C-terminally labeled designs (S5–S12 Tables). Enhanced affinities attributable to dye interactions have been reported previously. […] For example, XBP1-d1 was composed of heptads from N. vectensis, C. elegans and C. intestinalis proteins, and from previously designed bZIP binders. We also note that our four designs were composed of 24 distinct, non-recurring heptads. Thus, our design al ... || We compared the new designs to designed peptides targeting XBP1 and JUN reported by Grigoryan et al. for which FRET measurements were available. […] It should be noted that XBP1 presents a challenging target because three of its core a positions are occupied by asparagines. A matching asparagi ...

[6] = target: T3, JUN bZIP construct, C-terminally fluoresceinated (human, UniProt P05412 252-315, fluorescein at the C-terminus); assay: FRET or BRET; direct-binding FRET at 37°C; 10 nM fluorescein-labelled bZIP (donor), rhodamine-labelled design (acceptor) titrated 0 to 1 μM; 150 mM KCl, 50 mM potassium phosphate pH 7.4, 0.1% Tween-20, 0.1% BSA; settings: both partners purified
T3 construct: source: previously described, donated by A.W. Reinke [18]
T3 sequence (P05412 252-315): as the sequence (P05412 252-315 limits assumed) above

[7] = target: T4, ATF4 (Homo sapiens, UniProt P18848); settings: native human bZIP binding ATF4; cited from earlier work
T4 construct: made in house
T4 sequence (P18848 278-341 limits assumed): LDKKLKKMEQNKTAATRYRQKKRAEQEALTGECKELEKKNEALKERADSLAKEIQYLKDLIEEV
Source text: For example, XBP1-d1 was composed of heptads from N. vectensis, C. elegans and C. intestinalis proteins, and from previously designed bZIP binders. We also note that our four designs were composed of 24 distinct, non-recurring heptads. Thus, our design al ...

For ATF6: native human bZIP coiled coil, the Kd [1] is listed as 1 nM and the Kd [2] is listed as 5000 nM.

B1: ATF4-d1, rhodamine-labelled at the C-terminus (designed binder)
chain: GESKEYKKGSGSNQIKTLRTRLSKLRKDNLQLEKDIANLERKAKDLRAEKEQLEYELGC(Rhodamine Red C2‑maleimide)
notes: solubility linker after the His tag; added at the C-terminus for labelling; also used for the homodimer row; source: E. coli RP3098, purified (Ni-NTA under denaturing conditions, reverse-phase HPLC)
For B1, the Kd [3] was 36.3 nM and the Kd [4] was 9.3 ± 2.3 nM.

B2: FOS: native human bZIP coiled coil (protein)
chain: EEKRRIRRERNKMAAAKCRNRRRELTDTLQAETDQLEDEKSALQTEIANLLKEKEKLEFILAAH
modifications: C-terminal TAMRA when used as FRET acceptor
For B2, the Kd [5] is listed as 1 nM.

B3: JUN-d1, rhodamine-labelled at the C-terminus (designed binder)
chain: GESKEYKKGSGSSIAATLEKEEANLEKMNKKLAAEIESLLKEKDKLESVLNYHEGC(Rhodamine Red C2‑maleimide)
notes: solubility linker after the His tag; added at the C-terminus for labelling; source: E. coli RP3098, purified (Ni-NTA under denaturing conditions, reverse-phase HPLC)
B3 showed a Kd [6] of 5.8 ± 0.7 nM.

B4: ATF6B: native human bZIP coiled coil (protein)
chain: MAELMLLSEIADPTRFFTDNLLSPEDWGLQNSTLYSGLDEVAEEQTQLFRCPEQDVPFDGSSLDVGMDVSPSEPPWELLPIFPDLQVKSEPSSPCSSSSLSSESSRLSTEPSSEALGVGEVLHVKTESLAPPLCLLGDDPTSSFETVQINVIPTSDDSSDVQTKIEPVSPCSSVNSEASLLSADSSSQAFIGEEVLEVKTESLSPSGCLLWDVPAPSLGAVQISMGPSLDGSSGKALPTRKPPLQPKPVVLTTVPMPSRAVPPSTTVLLQSLVQPPPVSPVVLIQGAIRVQPEGPAPSLPRPERKSIVPAPMPGNSCPPEVDAKLLKRQQRMIKNRESACQSRRKKKEYLQGLEARLQAVLADNQQLRRENAALRRRLEALLAENSELKLGSGNRKVVCIMVFLLFIAFNFGPVSISEPPSAPISPRMNKGEPQPRRHLLGFSEQEPVQGVEPLQGSSQGPKEPQPSPTDQPSFSNLTAFPGGAKELLLRDLDQLFLSSDCRHFNRTESLRLADELSGWVQRHQRGRRKIPQRAQERQKSQPRKKSPPVKAVPIQPPGPPERDSVGQLQLYRHPDRSQPAFLDAIDRREDTFYVVSFRRDHLLLPAISHNKTSRPKMSLVMPAMAPNETLSGRGAPGDYEEMMQIECEVMDTRVIHIKTSTVPPSLRKQPSPTPGNATGGPLPVSAASQAHQASHQPLYLNHP
modifications: fluorescein at the C-terminus (FRET donor) or TAMRA (FRET acceptor), by assay
notes: native human bZIP coiled coil
In the case of B4, the Kd [7] is given as at least 5000 nM.
